Results as given in the supplement of paper PMC10567573.

B1: INTS3 (parent)
chain: FSDDEEDLNSKGKKREFRFHPIKE
B2: SNAP91 (parent)
chain: FAAPSPATTASPAKVDSSGVIDLF

Variants of: B1
Test: protein stability index of a GFP-peptide fusion (GPS, HEK-293T) (PSI 1-6); higher = more stable
Details: c terminus: a fixed tail appended
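Also: lentivirally expressed fusions sorted by FACS into six bins by GFP to DsRed ratio, PSI derived from sequencing read proportions per bin multiplied by bin number.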

| Variant | protein stability index |
| --- | --- |
| FSDDEEDLNSKGKKREFRFHPSKE | 2.63 |
| FSDDEEDLNSKGKKREFRFHPCKE | 2.48 |
| FSDDEEDLNSKGKKREFRFHPVKE | 3.07 |
| FSDDEEDLNSKGKKREFRFHPAKE | 2.88 |
| FSDDEEDLNSKGKKREFRFHPQKE | 3.32 |
| FSDDEEDLNSKGKKREFRFHPFKE | 2.12 |
| FSDDEEDLNSKGKKREFRFHPPKE | 3.25 |
| FSDDEEDLNSKGKKREFRFHPGKE | 2.98 |
| FSDDEEDLNSKGKKREFRFHPNKE | 2.88 |
| FSDDEEDLNSKGKKREFRFHPKKE | 2.81 |
| FSDDEEDLNSKGKKREFRFHPHKE | 2.91 |
| FSDDEEDLNSKGKKREFRFHPTKE | 3.29 |
| FSDDEEDLNSKGKKREFRFHPRKE | 3 |
| FSDDEEDLNSKGKKREFRFHPMKE | 3.2 |
| FSDDEEDLNSKGKKREFRFHPDKE | 3.98 |
| FSDDEEDLNSKGKKREFRFHPEKE | 3.89 |
| FSDDEEDLNSKGKKREFRFHPLKE | 3.19 |
| FSDDEEDLNSKGKKREFRFHPYKE | 2.48 |
| FSDDEEDLNSKGKKREFRFHPWKE | 2.33 |
| FSDDEEDLNSKGKKREFRFHPIKR | 2.31 |
| FSDDEEDLNSKGKKREFRFHPIKV | 2.07 |
| FSDDEEDLNSKGKKREFRFHPIKP | 1.76 |
| FSDDEEDLNSKGKKREFRFHPIKT | 1.81 |
| FSDDEEDLNSKGKKREFRFHPIKY | 2.72 |

| Variant | protein stability index |
| --- | --- |
| FSDDEEDLNSKGKKREFRFHPIKQ | 2.35 |
| FSDDEEDLNSKGKKREFRFHPIKK | 2.14 |
| FSDDEEDLNSKGKKREFRFHPIKL | 2.14 |
| FSDDEEDLNSKGKKREFRFHPIKS | 2.11 |
| FSDDEEDLNSKGKKREFRFHPIKF | 1.91 |
| FSDDEEDLNSKGKKREFRFHPIKD | 3.07 |
| FSDDEEDLNSKGKKREFRFHPIKH | 2.2 |
| FSDDEEDLNSKGKKREFRFHPIKW | 2.45 |
| FSDDEEDLNSKGKKREFRFHPIKI | 2.06 |
| FSDDEEDLNSKGKKREFRFHPIKM | 1.8 |
| FSDDEEDLNSKGKKREFRFHPIKG | 2.17 |
| FSDDEEDLNSKGKKREFRFHPIKC | 2.18 |
| FSDDEEDLNSKGKKREFRFHPIKA | 2.2 |
| FSDDEEDLNSKGKKREFRFHPIKN | 2.69 |
| FSDDEEDLNSKGKKREFRFHPIYE | 2.91 |
| FSDDEEDLNSKGKKREFRFHPIHE | 3.34 |
| FSDDEEDLNSKGKKREFRFHPIRE | 2.68 |
| FSDDEEDLNSKGKKREFRFHPIIE | 2.93 |
| FSDDEEDLNSKGKKREFRFHPICE | 3.43 |
| FSDDEEDLNSKGKKREFRFHPILE | 2.95 |
| FSDDEEDLNSKGKKREFRFHPIME | 3.5 |
| FSDDEEDLNSKGKKREFRFHPISE | 3.19 |
| FSDDEEDLNSKGKKREFRFHPIWE | 2.75 |
| FSDDEEDLNSKGKKREFRFHPIPE | 3.06 |

| Variant | protein stability index |
| --- | --- |
| FSDDEEDLNSKGKKREFRFHPINE | 3.18 |
| FSDDEEDLNSKGKKREFRFHPIDE | 4.1 |
| FSDDEEDLNSKGKKREFRFHPIQE | 3.18 |
| FSDDEEDLNSKGKKREFRFHPIVE | 3.06 |
| FSDDEEDLNSKGKKREFRFHPITE | 3.52 |
| FSDDEEDLNSKGKKREFRFHPIFE | 3.4 |
| FSDDEEDLNSKGKKREFRFHPIEE | 3.64 |
| FSDDEEDLNSKGKKREFRFHPIAE | 3.81 |
| FSDDEEDLNSKGKKREFRFHPIGE | 3.19 |
| FSDDEEDLNSKGKKREFRFHIIKE | 3.7 |
| FSDDEEDLNSKGKKREFRFHQIKE | 3.44 |
| FSDDEEDLNSKGKKREFRFHNIKE | 4.11 |
| FSDDEEDLNSKGKKREFRFHMIKE | 3.32 |
| FSDDEEDLNSKGKKREFRFHGIKE | 4.16 |
| FSDDEEDLNSKGKKREFRFHYIKE | 3.73 |
| FSDDEEDLNSKGKKREFRFHLIKE | 4.25 |
| FSDDEEDLNSKGKKREFRFHHIKE | 4.01 |
| FSDDEEDLNSKGKKREFRFHTIKE | 4.43 |
| FSDDEEDLNSKGKKREFRFHWIKE | 2.53 |
| FSDDEEDLNSKGKKREFRFHVIKE | 3.88 |
| FSDDEEDLNSKGKKREFRFHKIKE | 4.55 |
| FSDDEEDLNSKGKKREFRFHSIKE | 3.88 |
| FSDDEEDLNSKGKKREFRFHRIKE | 4.19 |

Variants of: B2
Test: as above
Details: c terminus: a fixed tail appended

| Variant | protein stability index |
| --- | --- |
| FAAPSPATTRSPAKVDSSGVIDLF | 1.99 |
| FAAPSPATTTSPAKVDSSGVIDLF | 2.36 |
| FAAPSPATTESPAKVDSSGVIDLF | 2.56 |
| FAAPSPATTNSPAKVDSSGVIDLF | 2.59 |
| FAAPSPATTFSPAKVDSSGVIDLF | 1.92 |
| FAIPSPATTASPAKVDSSGVIDLF | 2.28 |
| FAEPSPATTASPAKVDSSGVIDLF | 2.17 |
| FAGPSPATTASPAKVDSSGVIDLF | 2.32 |
| FAKPSPATTASPAKVDSSGVIDLF | 2.38 |
| CAAPSPATTASPAKVDSSGVIDLF | 3.82 |
| HAAPSPATTASPAKVDSSGVIDLF | 3.86 |
| GAAPSPATTASPAKVDSSGVIDLF | 4.43 |
| KAAPSPATTASPAKVDSSGVIDLF | 4.14 |
| FAAPSPATTASPAKVDSSGVIELF | 2.46 |
| FAAPSPATTASPAKVDSSGVIQLF | 2.26 |
| FAAPSPATTASPAKVDSSGVIFLF | 2.93 |
| FAAPSPATTASPAKVDSRGVIDLF | 2.11 |
| FAAPSPATTASPAKVDSCGVIDLF | 2.1 |
| FAAPSPATTASPAKVDSAGVIDLF | 2.29 |
| FAAPSPATTASPAKVDSYGVIDLF | 1.66 |
| FAAPSPATTASPAKVDSVGVIDLF | 2.1 |
| FAAPSPATTASPAKVDSLGVIDLF | 2.23 |
| FAAPSPATTASPAKVDSKGVIDLF | 2.46 |
